Results from publication PMC9371724 (2022).

T1: HA69 peptide on HLA DQB1*06:02/DQA1*01:02 (DQ0602) (human)
T1 peptide: AMERNAGSGIIISDT

T2: hemagglutinin (HA) of pandemic 2009 H1N1 (pHA, HA69) peptide on HLA-DQA1*01:02 / HLA-DQB1*06:02 (human)
T2 peptide: AMERNAGSGIIISDT

T3: hemagglutinin (HA) of pandemic 2009 H1N1 (pHA, HA69) peptide on HLA-DQA1*01:02 / HLA-DQB1*06:02 (human)
T3 peptide: AMERNAGSGIIISDT

B1: TCR108 (TCR)
alpha TRAV8-3 TRAJ24 CDR3: CAVGFTDSWGKLQF
beta TRBV19 TRBJ2-1 CDR3: CASSIDPSGNHYNEQFF
B2: TCR CAGSPSQGGSEKLVF / CSARPLGTSGRDEQFF (TCR)
alpha TRAV35 TRAJ57 CDR3: CAGSPSQGGSEKLVF
beta TRBV20-1 TRBJ2-1 CDR3: CSARPLGTSGRDEQFF
B3: TCR CAVNRADSWGKLQF / CASSIDKTGHSNQPQHF (TCR)
alpha TRAV12-2 TRAJ24 CDR3: CAVNRADSWGKLQF
beta TRBV19 TRBJ1-5 CDR3: CASSIDKTGHSNQPQHF
B4: TCR275 (TCR)
alpha TRAV13-1 TRAJ43 CDR3: CAANNNDMRF
beta TRBV4-2 TRBJ1-2 CDR3: CASSQETQGRNYGYTF
B5: TCR43 (TCR)
alpha TRAV13-1 TRAJ43 CDR3: CAASDNDMRF
beta TRBV4-2 TRBJ1-2 CDR3: CASSQETQGRNYGYTF
B6: TCR CAVGSTDSWGKLQF / CASRLDPTGHMNTEAFF (TCR)
alpha TRAV8-3 TRAJ24 CDR3: CAVGSTDSWGKLQF
beta TRBV19 TRBJ1-1 CDR3: CASRLDPTGHMNTEAFF
B7: TCR CIVRVGTNQGGKLIF / CASSQDRAGTNTEAFF (TCR)
alpha TRAV26-1 TRAJ23 CDR3: CIVRVGTNQGGKLIF
beta TRBV4-2 TRBJ1-1 CDR3: CASSQDRAGTNTEAFF
B8: TCR CALSGDNAGNNRKLIW / CASNSRLAGGHVAYNEQFF (TCR)
alpha TRAV19 TRAJ38 CDR3: CALSGDNAGNNRKLIW
beta TRBV12-3 TRBJ2-1 CDR3: CASNSRLAGGHVAYNEQFF
B9: TCR CIVRVGTNQAGTALIF / CASREQGLDYGYTF (TCR)
alpha TRAV26-1 TRAJ15 CDR3: CIVRVGTNQAGTALIF
beta TRBV19 TRBJ1-2 CDR3: CASREQGLDYGYTF
B10: TCR CLVGDMEYGNKLVF / CASSQAPPSGNEQFF (TCR)
alpha TRAV4 TRAJ47 CDR3: CLVGDMEYGNKLVF
beta TRBV4-2 TRBJ2-1 CDR3: CASSQAPPSGNEQFF
B11: TCR CIVRVATNQAGTALIF / CASSTQGAFAEAFF (TCR)
alpha TRAV26-1 TRAJ15 CDR3: CIVRVATNQAGTALIF
beta TRBV19 TRBJ1-1 CDR3: CASSTQGAFAEAFF
B12: TCR CAMRGQDSGYSTLTF / CASSIVRGLYSNQPQHF (TCR)
alpha TRAV14/DV4 TRAJ11 CDR3: CAMRGQDSGYSTLTF
beta TRBV19 TRBJ1-5 CDR3: CASSIVRGLYSNQPQHF
B13: TCR CALSPDSWGKLQF / CASSTRAPTRTGEKLFF (TCR)
alpha TRAV6 TRAJ24 CDR3: CALSPDSWGKLQF
beta TRBV7-9 TRBJ1-4 CDR3: CASSTRAPTRTGEKLFF
B14: TCR CAVSDGGTSYGKLTF / CASSQGNTGHSPLHF (TCR)
alpha TRAV8-6 TRAJ52 CDR3: CAVSDGGTSYGKLTF
beta TRBV4-3 TRBJ1-6 CDR3: CASSQGNTGHSPLHF
B15: TCR CAARQMDSSYKLIF / CASSVASSSYNEQFF (TCR)
alpha TRAV23/DV6 TRAJ12 CDR3: CAARQMDSSYKLIF
beta TRBV4-2 TRBJ2-1 CDR3: CASSVASSSYNEQFF
B16: TCR CIVRVVSNQGGKLIF / CASSPQGFDYGYTF (TCR)
alpha TRAV26-1 TRAJ23 CDR3: CIVRVVSNQGGKLIF
beta TRBV19 TRBJ1-2 CDR3: CASSPQGFDYGYTF
B17: TCR CAVSDNPRVQGAQKLVF / CSAAGTGGAGTEAFF (TCR)
alpha TRAV8-6 TRAJ54 CDR3: CAVSDNPRVQGAQKLVF
beta TRBV29-1 TRBJ1-1 CDR3: CSAAGTGGAGTEAFF
B18: TCR CIVRVLTNQGGKLIF / CASSFQGLSTDTQYF (TCR)
alpha TRAV26-1 TRAJ23 CDR3: CIVRVLTNQGGKLIF
beta TRBV12-3 TRBJ2-3 CDR3: CASSFQGLSTDTQYF
B19: TCR CATGSYNTDKLIF / CASSPDGTGVGNTIYF (TCR)
alpha TRAV17 TRAJ34 CDR3: CATGSYNTDKLIF
beta TRBV4-2 TRBJ1-3 CDR3: CASSPDGTGVGNTIYF
B20: TCR CAVSPGNNQGGKLIF / CASSTQGAGEAFF (TCR)
alpha TRAV8-2 TRAJ23 CDR3: CAVSPGNNQGGKLIF
beta TRBV19 TRBJ1-1 CDR3: CASSTQGAGEAFF
B21: TCR CVVSEPGTYKYIF / CASSPDGTGVGNTIYF (TCR)
alpha TRAV8-2 TRAJ40 CDR3: CVVSEPGTYKYIF
beta TRBV4-2 TRBJ1-3 CDR3: CASSPDGTGVGNTIYF
B22: TCR CIVRVATNQGGKLIF / CASSPQGGLAEQYF (TCR)
alpha TRAV26-1 TRAJ23 CDR3: CIVRVATNQGGKLIF
beta TRBV19 TRBJ2-7 CDR3: CASSPQGGLAEQYF
B23: TCR CAVSGGNAGNMLTF / CATQKGDRGQSWGYTF (TCR)
alpha TRAV2 TRAJ39 CDR3: CAVSGGNAGNMLTF
beta TRBV6-1 TRBJ1-2 CDR3: CATQKGDRGQSWGYTF
B24: TCR CATDTENNARLMF / CSAGGAGPKMQYF (TCR)
alpha TRAV17 TRAJ31 CDR3: CATDTENNARLMF
beta TRBV20-1 TRBJ2-7 CDR3: CSAGGAGPKMQYF
B25: TCR CVVNGEAPGNQFYF / CASSVASSSYNEQFF (TCR)
alpha TRAV12-1 TRAJ49 CDR3: CVVNGEAPGNQFYF
beta TRBV4-2 TRBJ2-1 CDR3: CASSVASSSYNEQFF
B26: TCR CAVSPSDSWGKLQF / CASSYPGLSQETQYF (TCR)
alpha TRAV8-2 TRAJ24 CDR3: CAVSPSDSWGKLQF
beta TRBV5-5 TRBJ2-5 CDR3: CASSYPGLSQETQYF
B27: TCR CIVRANTGNQFYF / CASSPDGTGVGNTIYF (TCR)
alpha TRAV26-1 TRAJ49 CDR3: CIVRANTGNQFYF
beta TRBV4-2 TRBJ1-3 CDR3: CASSPDGTGVGNTIYF

Target: T1, HA69 peptide on HLA …
Assay: activation reporter or marker

Q: Does B1 bind?
A: Result: recognises

Q: Does B2 bind?
A: Result: no recognition

Q: Does B3 bind?
A: Result: recognises

Q: Does B4 bind?
A: Result: recognises

Q: Does B5 bind?
A: Result: recognises

Q: Does B6 bind?
A: Result: recognises

Target: T2, hemagglutinin (HA) of pandemic 2009 …
Assay: activation reporter or marker

Q: Does B7 bind?
A: Result: no recognition

Q: Does B8 bind?
A: Result: no recognition

Q: Does B9 bind?
A: Result: no recognition

Q: Does B10 bind?
A: Result: no recognition

Q: Does B11 bind?
A: Result: no recognition

Q: Does B12 bind?
A: Result: no recognition

Q: Does B13 bind?
A: Result: no recognition

Q: Does B14 bind?
A: Result: no recognition

Q: Does B15 bind?
A: Result: no recognition

Q: Does B16 bind?
A: Result: no recognition

Q: Does B17 bind?
A: Result: no recognition

Q: Does B18 bind?
A: Result: no recognition

Q: Does B19 bind?
A: Result: no recognition

Q: Does B20 bind?
A: Result: no recognition

Q: Does B21 bind?
A: Result: no recognition

Q: Does B22 bind?
A: Result: no recognition

Q: Does B2 bind?
A: Result: no recognition

Q: Does B23 bind?
A: Result: no recognition

Q: Does B24 bind?
A: Result: no recognition

Q: Does B25 bind?
A: Result: no recognition

Q: Does B26 bind?
A: Result: no recognition

Q: Does B27 bind?
A: Result: no recognition

Target: T3, hemagglutinin (HA) of pandemic 2009 …
Assay: activation reporter or marker

Q: Does B4 bind?
A: Result: recognises

Q: Does B5 bind?
A: Result: recognises
